Measurements as given in the supplement of paper PMC10567573.

B1: KRT33B (parent)
chain: PAVDLNQVLNETRNQYEALVETNR

Variants of: B1
Assay: protein stability index of a GFP-peptide fusion (GPS, HEK-293T) (PSI 1-6); higher = more stable
Conditions: c terminus: a fixed tail appended
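Further: lentivirally expressed fusions sorted by FACS into six bins by GFP to DsRed ratio, PSI derived from sequencing read proportions per bin multiplied by bin number.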

Protein stability index, by site and new letter:
L19: C 4.53 | E 5.19 | I 4.11 | Q 5.1 | M 3.89 | T 4.7 | D 5.42 | R 4.29 | N 4.87 | F 4.11 | G 4.91 | K 4.95 | A 5.03 | H 4.57 | S 5.03 | P 4.97
A18: S 3.71 | M 3.55 | C 3.83 | K 2.69 | D 4.43 | T 3.67 | H 4.09 | L 3.59 | N 3.89 | E 3.58 | Q 2.96 | G 4.48 | W 3.72 | R 2.53 | P 4.28 | Y 3.96 | V 4.06 | I 3.55 | F 3.48
T12: A 2.16 | Q 2.85 | G 4.32 | R 4.89 | C 3.24 | E 4.5 | I 2.41 | P 4.52 | S 3.8 | Y 2.77 | H 2.84 | W 3.09 | D 4.61 | N 4.11 | F 1.85 | K 4.41 | M 3.4
Q15: C 3.87 | A 3.84 | R 4.37 | Y 3.23 | P 4.39 | S 3.95 | W 2.86 | H 3.95 | F 2.72 | I 3.44 | K 4.06 | G 4.45 | D 4.33 | V 3.82 | T 4.22 | E 4.61 | M 1.6 | L 2.04 | N 4.38
N14: R 2.81 | A 2.25 | P 4.43 | F 3.54 | L 2.07 | D 3.59 | Q 2.57 | W 2.55 | E 2.68 | T 3.21 | G 3.32 | Y 3.42 | K 2.63 | S 3.04 | C 2.82 | V 3.3 | H 3.53 | I 2.02 | M 2.05
E11: M 3.31 | N 3.94 | D 3.77 | S 3.62 | P 4.27 | L 3.81 | G 3.85 | A 3.63 | R 4.02 | Q 4.29 | V 3.88 | I 3.97 | W 3.38 | H 4.13 | T 4.1 | K 3.85 | Y 3.85 | C 4.3 | F 3.84
E17: S 4.24 | T 3.62 | W 3.54 | F 2.9 | H 3.9 | Y 3.09 | N 3.61 | I 3.13 | A 3.65 | C 3.65 | R 3.96 | L 3.73 | P 4.39 | Q 4.4 | G 3.91 | D 4.23 | K 3.48 | V 3.71 | M 3.55
Y16: T 5.15 | I 4.17 | V 4.92 | L 4.37 | E 4.85 | C 4.57 | Q 5.29 | F 3.5 | A 5.14 | D 4.98 | S 5.12 | K 4.8 | M 4.39 | H 5.02 | R 5.09 | G 5.21 | W 3.89 | P 5.06 | N 5.25
R13: G 4.35 | C 4.38 | D 4.93 | P 5.18 | H 4.76 | A 4.35 | I 3.32 | N 5.01 | M 3.12 | E 4.86 | W 3.92 | V 4.15 | L 3.46 | K 3.03 | F 4.15 | S 4.8 | T 4.59 | Y 3.69 | Q 4.32
N10: Y 2.47
